Experimental data reported in patent US20240400703A1 (Genmab, published 2024).
Positions count from the first letter of the chain named. In names and notes the source's numbering stands.

Legend:
[1] = target: T1, mouse OX40 expressed on ExpiCHO-S cells (mouse, UniProt P47741 20-272); assay: flow cytometry, transfected ExpiCHO-S cells, gMFI (PE)
T1 construct: full-length entry; also called OX40mm; wild-type mouse OX40
T1 sequence: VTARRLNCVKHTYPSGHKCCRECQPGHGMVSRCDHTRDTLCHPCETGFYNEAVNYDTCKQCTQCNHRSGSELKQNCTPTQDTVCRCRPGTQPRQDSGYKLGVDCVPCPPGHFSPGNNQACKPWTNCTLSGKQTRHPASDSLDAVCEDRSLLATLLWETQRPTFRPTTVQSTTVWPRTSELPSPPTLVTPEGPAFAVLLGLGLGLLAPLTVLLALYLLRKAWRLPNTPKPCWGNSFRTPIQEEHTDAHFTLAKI

[2] = target: T2, human OX40 with mouse CRD2 (human with mouse CRD2, UniProt P43489 29-277); assay: as above
T2 construct: on ExpiCHO-S cells; also called OX40-CRD2mm; Shuffle 2
T2 chain: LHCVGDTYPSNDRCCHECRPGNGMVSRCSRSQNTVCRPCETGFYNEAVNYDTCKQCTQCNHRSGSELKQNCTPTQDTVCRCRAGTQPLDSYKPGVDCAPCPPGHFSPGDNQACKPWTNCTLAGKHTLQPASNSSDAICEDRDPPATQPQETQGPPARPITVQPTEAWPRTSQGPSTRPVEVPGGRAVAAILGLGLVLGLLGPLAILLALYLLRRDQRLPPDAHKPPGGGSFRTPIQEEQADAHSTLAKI

[3] = target: T3, human OX40 with mouse CRD4 (human with mouse CRD4, UniProt P43489 29-277); assay: as above
T3 construct: on ExpiCHO-S cells; also called OX40-CRD4mm; Shuffle 4
T3 chain: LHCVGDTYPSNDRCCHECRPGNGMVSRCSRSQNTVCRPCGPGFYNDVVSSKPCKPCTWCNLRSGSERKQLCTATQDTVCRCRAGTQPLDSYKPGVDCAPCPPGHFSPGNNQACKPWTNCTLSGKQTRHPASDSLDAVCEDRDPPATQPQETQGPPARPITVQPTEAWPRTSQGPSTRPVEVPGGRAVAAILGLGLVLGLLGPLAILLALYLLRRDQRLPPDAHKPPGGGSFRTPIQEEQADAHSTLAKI
Procedure: (§1) The four shuffle constructs, as well as wild-type human and mouse OX40 were transiently expressed on ExpiCHO-S cells using the ExpiFectamine™ CHO Transfection Kit (ThermoFisher, cat. no. A29131), according to the manufacturer's protocol. […] Next, cells were washed twice in FACS buffer 1, were resuspended in a 30 μL solution of viability marker ToPro-3 (Invitrogen, cat. no. T3605, diluted 1:10,000) in FACS buffer 1 supplemented with 2 mM EDTA, and were analyzed on an iQue Screener Plus (Intellicyt Corporation, USA). Data were analyzed using FlowJo software and visualized using GraphPad Prism.

[4] = target: T4, human OX40 expressed on cells (human, UniProt P43489 29-277); assay: flow cytometry, OX40-transfected HEK293F cells, gMFI (PE)
T4 construct: also called CD134; TNFRSF4
T4 sequence: T3 chain with N109D, S122A, Q125H, R127L, H128Q, D132N, L134S, V137I
Procedure: (§2) Transfected cells were seeded in 96-well plates (30,000 cells/well; ThermoFisher, cat. no. 163320) for sequential incubations, with washing steps in between using fluorescence-activated cell sorting (FACS) buffer 1 (phosphate buffered saline [PBS; Lonza, cat. no. BE17-517Q] supplemented with 0.1% bovine serum albumin [BSA; Roche, cat. no. 10735086001] and 0.02% sodium azide [NaN₃; Bio-World, cat. no. 41920044-3]) supplemented with 2 mM ethylenediaminetetraacetic acid (EDTA; Sigma-Aldrich, cat. no. 03690). […] Cells were then washed using EDTA-supplemented FACS buffer 1, resuspended in a 30 μL solution of viability marker ToPro-3 (Invitrogen, cat. no. T3605, diluted 1:10,000) in EDTA-supplemented FACS buffer 1, and subsequently analyzed on an iQue® 3 flow cytometer (Satorius). Data were analyzed using FlowJo software and were visualized using GraphPad Prism.

[5] = target: T5, cynomolgus monkey OX40 expressed on HEK293F cells (cynomolgus monkey (Macaca fascicularis), UniProt P43489 29-277 (human entry)); assay: as above
T5 construct: full-length entry
T5 chain: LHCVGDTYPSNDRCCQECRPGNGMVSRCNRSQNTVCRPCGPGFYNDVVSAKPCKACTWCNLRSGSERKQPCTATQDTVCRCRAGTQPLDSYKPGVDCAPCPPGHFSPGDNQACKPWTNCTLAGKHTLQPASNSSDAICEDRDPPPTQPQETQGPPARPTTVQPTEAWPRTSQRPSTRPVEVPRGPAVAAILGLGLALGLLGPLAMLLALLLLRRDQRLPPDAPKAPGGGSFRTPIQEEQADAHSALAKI
Procedure: as §2

[6] = target: T6, human OX40 with mouse CRD1 (human with mouse CRD1, UniProt P43489 29-277); assay: flow cytometry, transfected ExpiCHO-S cells, MFI at 5 µg/mL as % of IgG1-CD134-A4453
T6 construct: on ExpiCHO-S cells; also called OX40-CRD1mm; Shuffle 1
T6 chain: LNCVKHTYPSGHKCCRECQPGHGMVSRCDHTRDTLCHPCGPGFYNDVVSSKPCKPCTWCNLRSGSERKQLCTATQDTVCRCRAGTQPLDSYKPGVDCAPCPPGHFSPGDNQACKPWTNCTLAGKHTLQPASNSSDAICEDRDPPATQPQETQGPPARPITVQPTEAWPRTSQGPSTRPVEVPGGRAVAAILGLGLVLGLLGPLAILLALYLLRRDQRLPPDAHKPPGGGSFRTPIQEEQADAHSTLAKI
Procedure: as §1

[7] = target: T7, human OX40 with mouse CRD3 (human with mouse CRD3, UniProt P43489 29-277); assay: as above
T7 construct: on ExpiCHO-S cells; also called OX40-CRD3mm; Shuffle 3
T7 chain: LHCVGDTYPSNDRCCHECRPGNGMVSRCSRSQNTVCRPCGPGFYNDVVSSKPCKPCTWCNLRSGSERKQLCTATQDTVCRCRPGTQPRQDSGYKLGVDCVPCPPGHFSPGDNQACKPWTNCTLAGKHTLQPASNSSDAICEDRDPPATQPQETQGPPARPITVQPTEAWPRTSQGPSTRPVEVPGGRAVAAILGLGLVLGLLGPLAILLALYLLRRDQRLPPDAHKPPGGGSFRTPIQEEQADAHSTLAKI
Procedure: as §1

[8] = target: T2, human OX40 with mouse CRD2; assay: as above
Procedure: as §1

B1: IgG1-CD134-007-RR (antibody)
heavy: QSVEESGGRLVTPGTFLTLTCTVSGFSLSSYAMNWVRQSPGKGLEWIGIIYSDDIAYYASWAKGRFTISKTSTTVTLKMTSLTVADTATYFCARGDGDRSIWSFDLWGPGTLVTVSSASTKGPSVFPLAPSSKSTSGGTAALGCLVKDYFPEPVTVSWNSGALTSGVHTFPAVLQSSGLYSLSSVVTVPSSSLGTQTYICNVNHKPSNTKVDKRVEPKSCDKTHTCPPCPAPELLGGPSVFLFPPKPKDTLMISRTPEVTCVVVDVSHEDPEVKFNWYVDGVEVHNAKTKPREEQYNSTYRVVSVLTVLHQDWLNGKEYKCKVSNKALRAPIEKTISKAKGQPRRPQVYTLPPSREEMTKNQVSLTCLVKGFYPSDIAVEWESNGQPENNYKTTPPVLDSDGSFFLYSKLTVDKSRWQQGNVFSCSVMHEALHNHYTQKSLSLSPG
light: AQVLTQTPSPVSAAVGGTVTISCQSSESVWNNNWLAWYQQKPGQPPNLLIYEASTLASGVSSRFKGSGSGTQFTLTVSEVQSDDAATYYCQGGYYDSSPIWTFGGGTEVVVKRTVAAPSVFIFPPSDEQLKSGTASVVCLLNNFYPREAKVQWKVDNALQSGNSQESVTEQDSKDSTYSLSSTLTLSKADYEKHKVYACEVTHQGLSSPVTKSFNRGEC
notes: non-humanized 007 variable regions; also called IgG1-CD134-007-P329R-E345R
binding result [1]: no binding (tested: 50 µg/mL) | binding result [2]: no binding (tested: 50 µg/mL) | binding result [3]: binds | EC50 (read off the curve) [4]: ~0.05 µg/mL | EC50 (read off the curve) [5]: ~0.04 µg/mL | binding result [6]: binds | binding result [7]: binds

B2: IgG1-CD134-012-RR-K409R (antibody)
heavy: QSLEESGGRLVTPGTPLTLICTVSGIDLSSGAMGWVRQAPGKGLEYIGYIYTGSGTTSYASWVNGRFTISMTSTTVDLKITSPTTEDTATYFCARDAASSYWGHFTLWGQGTLVTVSSASTKGPSVFPLAPSSKSTSGGTAALGCLVKDYFPEPVTVSWNSGALTSGVHTFPAVLQSSGLYSLSSVVTVPSSSLGTQTYICNVNHKPSNTKVDKRVEPKSCDKTHTCPPCPAPELLGGPSVFLFPPKPKDTLMISRTPEVTCVVVDVSHEDPEVKFNWYVDGVEVHNAKTKPREEQYNSTYRVVSVLTVLHQDWLNGKEYKCKVSNKALRAPIEKTISKAKGQPRRPQVYTLPPSREEMTKNQVSLTCLVKGFYPSDIAVEWESNGQPENNYKTTPPVLDSDGSFFLYSRLTVDKSRWQQGNVFSCSVMHEALHNHYTQKSLSLSPG
light: DIVMTQTPASVEAAVGGTVTIKCQASENIYSSLAWYQQKPGQPPKLLIYRTSTLASGVPSRFKGSGSGTQFTLTISDLESDDAATYYCQSYYHNSGGGYDYGFGGGTEVVAKRTVAAPSVFIFPPSDEQLKSGTASVVCLLNNFYPREAKVQWKVDNALQSGNSQESVTEQDSKDSTYSLSSTLTLSKADYEKHKVYACEVTHQGLSSPVTKSFNRGEC
notes: also called IgG1-CD134-012-P329R-E345R-K409R
binding result [1]: no binding (tested: 50 µg/mL) | binding result [3]: binds | EC50 (read off the curve) [4]: ~0.05 µg/mL | EC50 (read off the curve) [5]: ~0.06 µg/mL | binding result [8]: binds | binding result [7]: binds
